We go through three substances from PMC6638984, “Increased association between Epstein-Barr virus EBNA2 from type 2 strains and the transcriptional repressor BS69 restricts EBNA2 activity” (PLoS Pathogens, 2019).

The target of test [1] is BS69 CC-MYND (Homo sapiens) (UniProt Q15326). The conditions noted are these: cited from earlier work.
Test [2] deals with BS69 coiled-coil MYND domain (BS69_(CC-MYND), amino acids 480-602) (human) (UniProt Q15326). Description: ITC; EBNA2 polypeptide titrated into 0.1 mM BS69_(CC-MYND) in the cell, 19 x 2.0 μl injections, 25°C, 20 mM Tris-HCl, 100 mM NaCl, 1 mM TCEP, pH 7.5; one-site (one event) model; n calculated for monomeric proteins.
BS69 coiled-coil MYND domain (BS69_(CC-MYND), amino acids 480-602) (human), sequence (Q15326 480-602): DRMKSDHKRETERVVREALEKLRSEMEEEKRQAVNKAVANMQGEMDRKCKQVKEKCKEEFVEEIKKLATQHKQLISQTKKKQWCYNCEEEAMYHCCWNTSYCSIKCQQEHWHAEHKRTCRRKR
Test [3] has the same target. Briefly: ITC; EBNA2 polypeptide (0.3 or 0.6 mM) titrated into 0.1 mM BS69_(CC-MYND) in the cell, 19 x 2.0 µl injections, 25°C, 20 mM Tris-HCl, 100 mM NaCl, 1 mM TCEP, pH 7.5; one-site (one event) model; n on monomer concentrations; mean of 3 experiments.

type 1 EBNA2 polypeptide T1 EBNA2_(381-445) (domain or fragment), sequence (P12978 381-445): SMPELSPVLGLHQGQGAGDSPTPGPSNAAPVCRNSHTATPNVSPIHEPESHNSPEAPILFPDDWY
type 1 EBNA2 polypeptide T1 EBNA2_(381-455) (domain or fragment), sequence (P12978 381-455): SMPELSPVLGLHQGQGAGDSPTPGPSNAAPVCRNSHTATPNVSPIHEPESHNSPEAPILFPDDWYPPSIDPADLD
BS69 CC-MYND (Homo sapiens), sequence (Q15326 480-602): as the sequence (Q15326 480-602) above

With “EBNA2 type 1 motif 2 peptide motif 2 (from UniProt P12978)”, the Kd in test [1] is 35 µM. Turning to “type 1 EBNA2 polypeptide T1 EBNA2_(381-445) (domain or fragment)”, in test [2], the Kd is 0.95 µM and the stoichiometry N is 0.42.

“type 1 EBNA2 polypeptide T1 EBNA2_(381-455) (domain or fragment)” returned a stoichiometry N in test [3] of 0.38.
